Experimental data taken from the supplement of paper PMC12764529.
± gives the half width of the 95% confidence interval.

What was measured:
[1] = folding stability dG unfold from trypsin proteolysis; higher = more stable
Summary of the method: (§1)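 Bayesian fitting of sequencing counts gave K50 for each design. Unfolding free energy followed by setting this against a sequence-predicted unfolded-state K50 and a shared folded-state K50, either per protease or with trypsin and chymotrypsin combined. The designs, under 80 residues and lacking cysteine, were digested in a PA-tagged cDNA display format at 11 threefold-diluted protease concentrations and without protease, and only those with AlphaFold2 dimer inter-PAE above 15 were kept.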

[2] = folding stability dG unfold (combined trypsin and chymotrypsin); higher = more stable
Summary of the method: as §1

[3] = folding stability dG unfold from chymotrypsin proteolysis; higher = more stable
Summary of the method: as §1

Sequence	folding stability dG unfold [1] [kcal/mol]	folding stability dG unfold [2] [kcal/mol]	folding stability dG unfold [3] [kcal/mol]
SAGGSAGGIKPGETVLIVFKDKPEILVFPPGMSEEERKAFPGAKFILVKVEKPELTEEELKALESAGGSAGG [r6_830_TrROS_Hall]	-0.623 ± 0.13	-0.232 ± 0.16	-0.275 ± 0.18
SAGGSAGGSMKIKVEVEMEKVKDPKKKGEYIYKMKIKKVEIELSEEEKEKLKELAEKLGIEVESAGGSAGGS [r12_249_TrROS_Hall]	1.42 ± 0.066	2.08 ± 0.17	2.35 ± 0.074
SAGGSAGGSAGIKIPPGQKLSIEENPDGNMEIKFPDPGQKFTIPPNAPIEVDPNNWIYIKSAGGSAGGSAGG [r17_49_TrROS]	0.00801 ± 0.33	0.181 ± 0.33	0.0738 ± 0.4
SAGGSAGGSAGGKPNEVRVANIPIYRRLENGGWELIRPLPIVVPVDASVDFVLDAFKKYSAGGSAGGSAGGS [r10_470_TrMRF]	0.392 ± 0.041	0.658 ± 0.048	0.815 ± 0.076
SAGGSAGGSPSEEARKKGGLTLTITLRYPDGSTVTITYPVSTPLTIPEEFAKNPPKIESIELSSAGGSAGGS [r12_161_JUSTAS]	1.23 ± 0.019	1.34 ± 0.073	1.38 ± 0.051
SAGMAKVKLKVEVYFPKTGKPVTMEIEVEGLTLEEIIEEVKKAIEAIGLKIDPDAPVKIVITDIEVYPGSAG [r5_230_TrMRF]	3.75 ± 0.11	3.77 ± 0.077	3.77 ± 0.039
SAGGSAGGSIPEILKKIGISPEVVTEVEVTPVEKLPDSLVVKVTYTYKLPNGTTETKTVTVPIGSAGGSAGG [r6_776_JUSTAS]	2.14 ± 0.091	2.66 ± 0.13	2.76 ± 0.034
SAGGSMTFKAEVTPLDTFPLFDANGKPVAEVKVYTATIEFPDGSRVEIRGVEVGDELYILEIRPLDSAGGSA [r2_158_TrMRF]	1.54 ± 0.084	2.16 ± 0.13	2.32 ± 0.13
SMYRIRLPSNKVFTIDVPPDGTVEITLPNGKKLTLKLESEEDILALAEILSKLFPDDPAEIEPIPLEYYRSA [r9_1206_TrMRF]	1.24 ± 0.042	1.4 ± 0.092	1.53 ± 0.19
SAGGSAGGPNWVKFPIMFEMPIPVVPKMEKDPDGENRMEPVKPVRISIMIELTLPPDDLEDLIKSAGGSAGG [r6_120_TrROS]	1.41 ± 0.083	1.83 ± 0.18	2.28 ± 0.11
SAGKMVKVEIVIDVPPEEITEEELKAILEEEAEEVEITFDEETGKITITVTVSEEEAEKLREALKELGASAG [r5_378_TrROS_Hall]	1.02 ± 0.13	1.3 ± 0.26	1.04 ± 0.13
MKETVTVDITVVVEDENGKKHLVRVKVTVEKLPDGTYRVTIEVENLETGKTETIEIEVKGAEFKPGDVIEIS [r1_14_TrROS_Hall]	3.21 ± 0.15	2.87 ± 0.12	2.56 ± 0.15
SAGGMIVLEFPDGKIVFVEPVSEFTTPDGKKVRLVKVIVTDPLTGKSTIIEREVLPGGGVKEKVTPESAGGS [r16_651_JUSTAS]	1.89 ± 0.042	1.49 ± 0.13	1.32 ± 0.043
SAGGKITIEIEEEDGYLVIRIREEKEVYDEETGELKKEEKEITIVLPLEEAKKLAEELNLEIEIVEPSAGGS [r8_337_TrROS_Hall]	2.09 ± 0.079	2.42 ± 0.23	2.49 ± 0.16
SAGGSAGGSAGMKVEEVPETPVWRFTITRGKKTTIVEVEVPPDEPPDPAEVAAELGYELESAGGSAGGSAGG [r11_1053_JUSTAS]	1.84 ± 0.075	1.89 ± 0.25	1.65 ± 0.18
SAGGSAGGSAMKPVPFEVLSVSYPVLPNGTRIRLVEIKFPETGEVKWIELSPDDPVIKALLSAGGSAGGSAG [r3_57_JUSTAS]	2.27 ± 0.029	2.06 ± 0.086	1.899 ± 0.011
SMKITLEKGNYKIEIYKHPETGEIIAKVYDKNGKLVAVAHIKIEVEPDKDGKKIIKKIEIHVHILKEDPKSA [r9_262_TrMRF]	2.58 ± 0.22	3.02 ± 0.31	3.77 ± 0.11
